Here are results for four substances from publication PMC2139889.

A word on the IC50: it is the midpoint of a concentration-inhibition curve. Read a high IC50 as weaker potency.

This test deals with GPI-anchored urokinase receptor (uPAR) on U937 cells (human (endogenous in U937)) (UniProt Q03405). The test can be described thus: radioligand binding.
Sequence of UniProt Q03405 (Q03405 23-305): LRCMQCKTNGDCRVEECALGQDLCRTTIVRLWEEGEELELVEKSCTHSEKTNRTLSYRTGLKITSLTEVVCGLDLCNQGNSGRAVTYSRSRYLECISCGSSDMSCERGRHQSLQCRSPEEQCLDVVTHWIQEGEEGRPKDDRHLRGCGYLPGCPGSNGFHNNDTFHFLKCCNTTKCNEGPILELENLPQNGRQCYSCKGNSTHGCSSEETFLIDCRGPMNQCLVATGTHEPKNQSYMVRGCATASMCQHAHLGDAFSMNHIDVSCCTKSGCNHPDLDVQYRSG
“histidine-tagged pro-uPA with Ser138 and Ser303 replaced by Glu (enzyme)” had an IC50 of 0.4 nM.
For “histidine-tagged pro-uPA with Ser138 replaced by Glu (enzyme)”, the IC50 worked out at 0.4 nM.
“histidine-tagged wild-type pro-uPA (enzyme)” yielded an IC50 of 0.4 nM.
human urinary uPA (enzyme) displayed an IC50 of 0.4 nM. In other words, the sub-nanomolar range.
